Data published in patent publication US20210403541A1.

Molecular target: PD17(p)PS413 (24AWF) (human)
Assay: peptide-coated ELISA (1 µg/ml peptide 24AWF coat, anti-human IgG-HRP, ABTS, OD405)

B1: V5-AFM-hIgG4-S228P (antibody, V domains shown)
VH: EVQLVESGGGLVQPGGSLRLSCAASGFTFSSFALNWVRQAPGKGLEWVGHIRSKTNNYVTFYAASVKGRFTVSRDDSQNTAYLQMNSLKTEDTATYYCVRRGPRDSWFGYWGQGTLVTVSS
VL: DIVMTQSPLSLPVTLGEPASISCRSSQKIVHRNANTYLEWYLQKPGQSPQLLIYTVSNRFSGVPDRFSGSGSGTDFTLKISRVEAEDLGVYYCFQGSYLPLTFGGGTKVEIK
An EC50 (read off the curve) of 0.05 µg/mL was found for B1 in this work.
